Experimental data from the DeepSol protein solubility set.

Assay: soluble on expression in E. coli; label from the status in PepcDB or PDB records

Sequence | soluble on expression in E. coli
MLIRPNKVQKVGNLFMDTVHEEEIRLLNQLYDTLMKKDVEKADQLMDELLVDLEDHFTTEEELMREFEFFAYPMHKAEHDTMRKRFKEVYDKWKKEKNPEEVVRFLKEEFVPWLKSHVARWDSTTAQQLGD | not soluble
MSNALRGGPDFLLSVDSPVNIPSAFWSTLSPMTPRPRLLLTAALLALVPAAQAADLRLYPTLGEVTSQPLKVEGGAVTVPFPKADWAWVVPGSVRLLGVPVTRTRVTPGVNVLRAHEGEAVRVLRGGLNLKGTLADAEALLVQLDSGEYLTVRPDELAFSTRPPSSRDVADVKVTFETGGAGSANLLYQTRALSWKPRYELDASGDAATLRALAEIRNAGDQSFSGSTDLYAGDVRLVPENVPMPTLRWWENSPRPPAARAMPLSPRTALSRLSARLEHHHHHH | not soluble
MAEGVNEPCFPGDCGIFVTKVDKGSIADGRLRVNDWLLRINDVDLINKDKKQAIKALLNGEGAINMVVRRRKSLGGKVVTPLHINLSGQKDSGISLENGVYAAAVLPGSPAAKEGSLAVGDRIVAINGIALDNKSLNECESLLRSCQDSLTLSLLKVFPQSSSWSGQNIFENIKDSDKMLSFRAHGPEVQAHNKRNLIQHNNSTQTDIFYTDRLEDRKEPGPPGGSSSFLHKPFPGGPLQVCPQACPSASERSLSSFRSDASGDRGFGLVDVRGRRPLLPFETEVGPCGVGEASLDKADSEGSNSGGTWPKAMLSSTAVPEKLSVYKKPKQRKSIFDPNTFKRPQTPPKIDYLLPGPGPAHSPQPSKRAGPLTPPKPPRRSDSIKFQHRLETSSESEATLVGSSPSTSPPSALPPDVDPGEPMHASPPRKARVRIASSYYPEGDGDSSHLPAKKSCDEDLTSQKVDELGQKRRRPKSAPSFRPKLAPVVIPAQFLEEQKCVPASGELSPELQEWAPYSPGHSSRHSNPPLYPSRPSVGTVPRSLTPSTTVSSILRNPIYTVRSHRVGPCSSPPAARDAGPQGLHPSVQHQGRLSLDLSHRTCSDYSEMRATHGSNSLPSSARLGSSSNLQFKAERIKIPSTPRYPRSVVGSERGSVSHSECSTPPQSPLNIDTLSSCSQSQTSASTLPRIAVNPASLGERRKDRPYVEEPRHVKVQKGSEPLGISIVSGEKGGIYVSKVTVGSIAHQAGLEYGDQLLEFNGINLRSATEQQARLIIGQQCDTITILAQYNPHVHQLSSHSRSSSHLDPAGTHSTLQGSGTTTPEHPSVIDPLMEQDEGPSTPPAKQSSSRIAGDANKKTLEPRVVFIKKSQLELGVHLCGGNLHGVFVAEVEDDSPAKGPDGLVPGDLILEYGSLDVRNKTVEEVYVEMLKPRDGVRLKVQYRPEEFTKAKGLPGDSFYIRALYDRLADVEQELSFKKDDILYVDDTLPQGTFGSWMAWQLDENAQKIQRGQIPSKYVMDQEFSRRLSMSEVKDDNSATKTLSAAARRSFFRRKHKHKRSGSKDGKDLLALDAFSSDSIPLFEDSVSLAYQRVQKVDCTALRPVLILGPLLDVVKEMLVNEAPGKFCRCPLEVMKASQQAIERGVKDCLFVDYKRRSGHFDVTTVASIKEITEKNRHCLLDIAPHAIERLHHMHIYPIVIFIHYKSAKHIKEQRDPIYLRDKVTQRHSKEQFEAAQKLEQEYSRYFTGVIQGGALSSICTQILAMVNQEQNKVLWIPACPL | soluble
MVASYEIEFIGEGEVAGILREALRTDSRVESFEEFERGFKLRLVGAKRRITIVCKGSVQSDDCLLIVNARKMPENGGIALNADKIAERCGSKPEIAMLGAIAKLGVVDLKRLMSVIYREMGYGDVLAVKKGFEATNI | not soluble
MAHHHHHHMGSKHPRGSTSAPAHEEEQQAHVDTEHHTEPPSFTAGPEVAEMQVTVTPTMPPTSMEQASMTVSGEGPSTLAVPKQQHLRHKSFTMTEVQQLISVNPDRTLVIIRDKVYDVTTFLASHPGGKSALRRNNGKDVTDAFFSMHSAMAVRKLPDFLIGELAPPESTSAAGEETPTAALVPARLRMADITKALSEDLNRIILILFSDAYDVTSMRDKHPGGLSVLVNNNGRECGDTFMRIHGLLAKEMVKQFYLGPVEGLAQGRSPLRPAVAAEVESTAITPAGPKAQSTRILEIESVNSTVTIRYFTFSCPKPLYMIPGGHIKLYSNLHEKESRFYTPFKTGVSSFTICMKHYPNGRTSGYLFDLKEGDEVFFDGPLPPSWQLNTDAAVQRAAPEERHVVLVGGGTGIAPLYSMSSNALETQFSSVTLVCSVRTPDDLILATELRQLANRYSTALPIQKHTLRIVLLFSRASPQDISVESTSFASHVLCGGRLTAESFKGTEIHPAQAVVVCGPPTFNDAVAAAVLEAGICTATQVHHL | not soluble
MPKRKTGYEEMLEDVIETLKQSPEEVNKALETSGKVVEAANDLTKDELALIAAYVKADLKEFSESYEDSKSGPFYLTVADSIWQGLLEITDRTKVEWVELFDDLEHQGLYEAGEVIGLGTLVCDECGHKTTYNHPIIIIPCIKCGHKGFSRQSLKP | not soluble
MREETFPGDIAQYFSVIHRAFLKDTKGEYAKYDLNPTNAYILLYLFFNKNSSQSELAQKLVINKGQITRETTKLLSLNFISKEISSKNRTTNVIAISSDGKKVIKKIIDIRNQWWEEKLKLSGVKTNSEFLDSLKKLESILN | not soluble
SNAMAHEAQKAIARNSLLIRSLPEQHVDALLSQAVWRSYDRGETLFLQEEKAQAIHVVIDGWVKLFRMTPTGSEAVVSVFTRGESFGEAVALRNTPYPVSAEAVTPCEVMHIPSPVFVSLMRRDPEICISILATTFGHLHSLVAQLEQLKAQTGAQRVAEFLLELCDCDTGACEVTLPYDKMLIAGRLGMKPESLSRAFSRLKAAGVTVKRNHAEIEDIALLRDYAESDPADSWSES | soluble
DLKDPIKISIPRYVLCGQGKDAHFEFEVKITVLDETWTVFRRYSRFREMHKTLKLKYAELAALEFPPKKLFGNKDERVIAERRSHLEKYLRDFFSVMLQSATSPLHINKVGLTLSKHTICEFSPFFKKGVFDYS | soluble
MIVNEINSSEEVLQIEQIDVEGQRAEYNRIQQERQDYQYAMRFAVHVDQVAVQALPIPAQSPEHLVAEHSNAQVPVDARPNPPTQSPAPRAAPDHGPVQAPRNLAQALNLPRRARGRPRRSDVRRTRDAQDSVATQQGPNAEQSGILVPPASRQQPEHSATSTISAPLSPASSTNMALQNAPSDHGDQLIRDSSEDRQNVPAPRRSARIASHTQYRTSPYVSARQGHRLAIARGRAAPGTLDPSASRQSIPSTSDAPVLVPHAPPAPPSPTLQDCVICMEEPVNPKVCPKCLKMIGCAKCFRWWTVFRCWWQSSLNPSCPLCRLKWDSAPKVIAAKKFYDGK | not soluble
MSLRNKIKSWLLNASEYDFTDIKEGIRLHLNESPFEPPQFIIDAVKMYLSKGNRYQHPDLLEKYRELAAEYSKVEPENIYPSVGADGSIRAIFYNLVEPGDTILTNYPSYSMYSVYSSVRGTKVIKVNLKEDNEWWKENTDDLLAQAEKVELVIIDDPNNPTGSPMLNGKKELIGQLAENTKGFVVIDEAYYEFGGYTVSPYIYDYPNVLVVRTLSKAFSLASYRLGYTIANEEIVKALMKSSTPFDIPLPSLIAGITALENPSYIKDVVNIVNRNREILYQGLKNLNLKVYKSITNFLLIKDNRNLQEMLMRHGIAIRKLYDNFYRITIGTEDQCKMVIDKLGEELENSNSEGHHHHHH | soluble
MGHHHHHHSHMIGPIIDKLEKVAVRGGDKKLKPEYDIMCKVKSWVIDQKKPVRFYHDWNDKEIEVLNKHLFLTSKPMVYLVNLSEKDYIRKKNKWLIKIKEWVDKYDPGALVIPFSGALELKLQELSAEERQKYLEANMTQSALPKIIKAGFAALQLEYFFTAGPDEVRAWTIRKGTKAPQAAGKIHTDFEKGFIMAEVMKYEDFKEEGSENAVKAAGKYRQQGRNYIVEDGDIIFFKFNTPRQPKKK | not soluble
MHIQRKSTMSKCSADETPVCCCMDVGTIMDNSDCTASYSRVFANRAEAEQTLAALTEKARSVESEPCKITPTFTEESDGVRLDIDFTFACEAEMLIFQLGLR | not soluble
MAHHHHHHMSVRERAVVLVDGPAVVHRWYHRWSYTSKHTPVDVKRFTITNARHIIATAHSFDPSHLAQHLLSPQVEYAHTPKHNKIIVCFDQGDGGRRELYPAYKENRAEREHAAELSVIKKVAIKVFTGEPKNTLIVLPDLDAKLKDVDAEADDIIATLALHNQQLKIPTVVMSHDYDLYQLIDEANKCYHYDIRTKHLVSEKGVIERVGVHPKLVRDYKSLAGDSSDNIPGVKGIGKTRALQLLKKYGDLEGVLTKGKKKQGGHLGDLLRAGAADAELSRKLVELRSCPKVLKACEAFMKL | soluble
